Assay results taken from publication PMC7671035 (mAbs, 2020).
One block for each binder: values may come before it.

Experiments:
human CXCL1 = human CXCL1 (Homo sapiens, UniProt P09341)
rat CXCL1 = rat CXCL1 (Rattus norvegicus, UniProt P14095); assay: SPR
mouse CXCL2 = mouse CXCL2 (Mus musculus, UniProt P10889); assay: SPR
mouse CXCL1 = mouse CXCL1 (Mus musculus, UniProt P12850); assay: SPR
rat CXCL2 = rat CXCL2 (Rattus norvegicus, UniProt P30348); assay: SPR
mouse CXCL3 = mouse CXCL3 (Mus musculus, UniProt Q6W5C0); assay: SPR
rat CXCL3 = rat CXCL3 (Rattus norvegicus, UniProt Q10746); assay: SPR
human CXCL4 = human CXCL4 (Homo sapiens (Human)., UniProt P02776); assay: ELISA
human CXCL16 = human CXCL16 (Homo sapiens, UniProt Q9H2A7); assay: ELISA
human CXCL14 = human CXCL14 (Homo sapiens, UniProt O95715); assay: ELISA
human CXCL17 = human CXCL17 (Homo sapiens, UniProt Q6UXB2); assay: ELISA
human CXCL12 = human CXCL12 (Homo sapiens, UniProt P48061); assay: ELISA
human CXCL13 = human CXCL13 (Homo sapiens (Human)., UniProt O43927); assay: ELISA
human CXCL10 = human CXCL10 (Homo sapiens (Human)., UniProt P02778); assay: ELISA
Chain of human CXCL10 (P02778 22-98): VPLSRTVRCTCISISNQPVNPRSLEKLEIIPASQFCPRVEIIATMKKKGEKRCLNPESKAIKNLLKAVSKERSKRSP

Chain of mouse CXCL2 (P10889 28-100): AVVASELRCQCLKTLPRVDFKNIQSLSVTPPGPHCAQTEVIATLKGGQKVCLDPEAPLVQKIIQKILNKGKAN
Chain of mouse CXCL3 (Q6W5C0 32-100): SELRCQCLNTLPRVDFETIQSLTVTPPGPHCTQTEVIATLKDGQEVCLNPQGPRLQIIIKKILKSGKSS
Chain of human CXCL13 (O43927 23-109): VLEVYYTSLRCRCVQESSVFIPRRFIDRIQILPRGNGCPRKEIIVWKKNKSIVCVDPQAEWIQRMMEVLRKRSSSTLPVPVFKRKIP
Chain of human CXCL12 (P48061 22-93): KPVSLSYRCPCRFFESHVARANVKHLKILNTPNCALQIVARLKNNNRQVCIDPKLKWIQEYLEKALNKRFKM
Chain of human CXCL4 (P02776 32-101): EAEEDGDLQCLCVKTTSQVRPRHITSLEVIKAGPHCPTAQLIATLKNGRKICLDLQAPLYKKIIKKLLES
Chain of rat CXCL1 (P14095 25-96): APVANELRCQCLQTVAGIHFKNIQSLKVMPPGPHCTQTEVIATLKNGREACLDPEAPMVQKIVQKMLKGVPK
Chain of mouse CXCL1 (P12850 25-96): as the sequence (P14095 25-96) above, with V3I, V15M, F20L, M29L, P31S, M58L counted along it
Chain of rat CXCL3 (Q10746 33-101): as the sequence (Q6W5C0 32-100) above, with S1R, N9K, T18N, G52A, I57K, K60Q, I62L, G66D counted along it
Chain of human CXCL16 (Q9H2A7 30-254): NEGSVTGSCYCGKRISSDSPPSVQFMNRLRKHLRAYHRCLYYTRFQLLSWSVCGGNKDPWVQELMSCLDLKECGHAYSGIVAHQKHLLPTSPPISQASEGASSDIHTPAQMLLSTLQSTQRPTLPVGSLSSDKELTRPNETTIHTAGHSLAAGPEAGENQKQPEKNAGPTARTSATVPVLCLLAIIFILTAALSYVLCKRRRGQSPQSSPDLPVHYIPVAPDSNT
Chain of human CXCL1 (P09341 35-107): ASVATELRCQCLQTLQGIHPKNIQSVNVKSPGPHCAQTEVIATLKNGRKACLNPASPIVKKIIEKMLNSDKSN
Chain of human CXCL14 (O95715 35-111): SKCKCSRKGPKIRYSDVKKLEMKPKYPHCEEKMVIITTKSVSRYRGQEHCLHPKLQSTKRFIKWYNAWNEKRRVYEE
Chain of human CXCL17 (Q6UXB2 22-119): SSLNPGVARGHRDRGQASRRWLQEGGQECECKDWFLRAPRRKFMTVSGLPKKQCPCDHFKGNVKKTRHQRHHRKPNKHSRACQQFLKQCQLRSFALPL
Chain of rat CXCL2 (P30348 32-100): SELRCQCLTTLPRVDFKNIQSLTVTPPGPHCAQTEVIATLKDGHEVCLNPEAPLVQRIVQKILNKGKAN

binding result (human CXCL1): binds
B1: 1581 (antibody, V domains shown)
VH: QVHVKQSGAELVKPGASVRLSCTASGYTFTSYWMHWVKQRPGQGLEWIGNINPNSGSANYNEKFKSKATLTVDTSSSTAYMQLSSLTSEDSAVYYCTREGPYSYYPVRVYYGLDYWGQGTSVTVSS
VL: DIVLTQSPATLSVTPGDRVSLSCRASQSISNNLHWYQQKSHESPRLLIKYTSQSVSGIPSRFSASGSGTDFTLSINSVETEDFGMYFCQQSNSWPLTFGAGTKLELK

Kd (rat CXCL1): ~0.2 nM
Kd (mouse CXCL2): ~0.2 nM
Kd (mouse CXCL1): ~0.2 nM
Kd (rat CXCL2): ~0.2 nM
Kd (mouse CXCL3): ~0.2 nM
Kd (rat CXCL3): ~0.2 nM
binding result (human CXCL4): no binding (tested: 20 µg/mL)
binding result (human CXCL16): no binding (tested: 20 µg/mL)
binding result (human CXCL14): no binding (tested: 20 µg/mL)
binding result (human CXCL17): no binding (tested: 20 µg/mL)
binding result (human CXCL12): no binding (tested: 20 µg/mL)
binding result (human CXCL13): no binding (tested: 20 µg/mL)
binding result (human CXCL10): no binding (tested: 20 µg/mL)
B2: LY3041658 (antibody, V domains shown)
VH: QVQLVQSGAEVKKPGASVKVSCKASGYEFTSYWIHWVRQAPGQGLEWMGNISPNSGSANYNEKFKSRVTMTRDTSTSTVYMELSSLRSEDTAVYYCAREGPYSYYPSREYYGSDLWGQGTLVTVSS
VL: EIVLTQSPATLSLSPGERATLSCRASQSISNNLHWYQQKPGQAPRLLIYYTSRSVSGIPARFSGSGSGTDFTLTISSLEPEDFAVYYCGQNNEWPEVFGGGTKVEIK
